Values quoted from earlier work in PMC4283463 (Journal of pharmaceutical sciences, 2014).

human growth hormone [hGH]
decrease in stability on carbamidomethylation of all four Cys residues: ~ 37.7 kJ/mol
